These results are taken from the nanobody polyreactivity screen of Harvey et al. (2022).

This data set can be described thus: yeast display, Sf9 membrane polyspecificity reagent, FACS + sequencing; frameworks hold sequencing errors. The essentials:
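Sorting gates, low and high (top ~1%), were placed on anti-HA fluorescence to track expression and on streptavidin fluorescence to track reagent binding. A clone's polyreactivity label is taken from the gate it came out of. The reagent was 10% biotinylated, detergent-solubilized Sf9 membrane, applied for 1 hour at 4 °C to galactose-induced yeast display cells.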
Regarding “QVQLVESGGGLVQAGGSLRLSCAACGRTLVRYAMGWYRQAPGKERELVATITRGGSTNYADSVKGRFTISRDNAKNTVYLQMNSLKPEDTAVYYCARDLYYSSRYSPYGRYDYWGQGTQVTVSS”, the “polyreactivity (PSR sort gate)” value is on record as “high polyreactivity”.

Turning to “QVQLVESGGGLVQAGGSLRLSCAASGSTFPYYAMGWYRQATGKEREFVASITYGGGSTYYADSVKGRFTISRDNAKNTVYLQMNSLKPEDTAVYYCAAGYIAGRVWYDYWGQGTQVTVSS”, the “polyreactivity (PSR sort gate)” value was “low polyreactivity”.

“QLQLVESGVGLVQAGGSLRLSCAPSGFTSTYYAMAWYSQAPGKERELVAAITSSGTRTYYADSVKGRFTISRENAKNTVYLQMNSLKPEDTAVYYCNAALRKGMYYWGQGTQVTVSS”: the “polyreactivity (PSR sort gate)” value is listed as “high polyreactivity”.

As for “QVQLVESGGGLVQAGGSLRLSCAASGLIFRGYAMGWYRQAPGKERELVAAISGSGVTTYYADSVKGRFTISRDYAKNSVYLQMNCLKPEDTAVYYCAASTRYEGNYWGQGTQVTVSS”, the “polyreactivity (PSR sort gate)” value was “high polyreactivity”.

As for “QVQLVESGGGLVQAGGSLRLSCAASGRTFPVYSMGWYRQAPGKERELVDVITTRVTSTYYADSVKGRFTISRDNAKNSVYLQMNSLKPEDTAVYYCNARTAYTGNYGPPKGGYWGQGTQVTVSS”, the “polyreactivity (PSR sort gate)” value is reported as “high polyreactivity”.

On to “QVQLVESGGGLVQAGGSLRLSCAASGGTFRRYAMGWYRQAPGKEREFVAAITISGGNTYYADSVKGRFTISRDNAKNTVYLQMNSLKPEDTAVYYCAKDHIRKQPEGRRMDYWGQGTQVTVSS”, for which the “polyreactivity (PSR sort gate)” value is “low polyreactivity”.

As for “QVQLVESGGGLVQAGGSLRLSCAASGRIFRYNAMGWYRQAPGKERELVAAISWTVGRTYYADSVKGRFTISRDNAKNTVYLQMNSLKPEDTAVYYCATDVGYYRKYEYYYWGQGTQVTVSS”, the “polyreactivity (PSR sort gate)” value was “high polyreactivity”.

Turning to “PVQLVESGGGLVQAGGSLRLSCAASGIIFSDYAMGWYRQGPGKERELVAAITGGVSKYYADSVKGRFTISRDNAKNTVYLQMNSLKPEDTAVYYCNTDAWLETPVSGYSWGQGTQVTVSS”, the “polyreactivity (PSR sort gate)” value is “low polyreactivity”.

As to “QVQLVESGGGLVQAGGSLRLSCAASGSTFGGYSMGWYRQAPGKERELVAAITYSGGSTYYADSVKGRFTISGDIAQNTVYLQMKSLKPEDTAFYYCNADDDDALPWWWPYVLDVDYWGQGTQVTVSS”, the “polyreactivity (PSR sort gate)” value is given as “low polyreactivity”.

For “QVQLQESGGGLVQAGGSLRLSCAASGTITQEDWMGWYRQAPGKEREFVAAIGLGSNTNYADSLKGRFTISRDNAKNTVYLQMNSLKPEDTGVYYCAVSVWQYSDHVYRGQGTQVTVSS”, the “polyreactivity (PSR sort gate)” value is “low polyreactivity”.

Consider “QVQLVESGGGIVQAGGSLRLSCAASGRIFGYYAMGWYIQAPGNERELVASISSSGGSTYYADSVKGRFTISRDNAKNTVYLQMKSLKPEDTAVYYCNTASNRYQGWRAEFDYWGQGSQVTVSS”, for which the “polyreactivity (PSR sort gate)” value was “low polyreactivity”.

On to “QVQLVESGGGLVQAGGSLRLSCAASGSIFGRNAMGWYRQAPGKERELGAAMTGSGTSTYADSVKGRFTISRDNAKNTVYLQMNSLKPEDTAVYYCAAGVTTVEYEYCGQGTQVTVSS”, for which the “polyreactivity (PSR sort gate)” value is listed as “low polyreactivity”.

For the sequence “QVQLVESGGGLVQAGGSLRLSCAASGYIFDVNTMGWYRQAPGKERELFAAITSGGTTYYADSVKGRFTISRDNAKNTVYLQMNSLKPEDTAVYYCAARRYPFEYDYWGQGTQVTVSS”, the “polyreactivity (PSR sort gate)” value is listed as “high polyreactivity”.

With “QVQLVESGGGLVQAGGSLRISCAPSGRIFSYNAMGWYRPAPGKERELVAAINYSDDSTYYADSVKGRFTISRDNAKNTVYLQMNSLKPEDTAVYYCNADASSIVPSYDRPFDYWGQATQVTVSS”, the “polyreactivity (PSR sort gate)” value was “low polyreactivity”.

As to “QVQLVESGGRKVQAGGSLRLSCAASGSTIWPYAMGCYRQAPAKERELVAAISNGGGTKYADSVKGRFTISRDNAKNTVYLQMNSLKPEHTAVYYCAKTLWTGRAWYDYWGQGTQVTVSS”, the “polyreactivity (PSR sort gate)” value is “high polyreactivity”.

Consider “QVQLVESGGGLVQAGGSLRLSCAPSGNTFEHYAMGWYRQAPGKERELVAAISYSGGSTYYADSVKGRFTISRDNAKNTVYLQMNSLKPEDTAVYYCNARGRASATGRRGRPDPFGYWGQGTQVTLSS”, for which the “polyreactivity (PSR sort gate)” value was “high polyreactivity”.

As for “QVQLVESGGGLVQAGGSLRLSCAASGRIIYYYAMGWYRQAPGKERELVAAISWSGVNTYYADSVKGRFTISRDNAKNTVYLQMNSLKPEDTAVYYCAAGFAYKYSKGFWSDYWGQGTQVTVSS”, the “polyreactivity (PSR sort gate)” value is on record as “high polyreactivity”.

Turning to “QVQLVESGGGLVQAGGSLRLSCAASGRTFRYNAMGWYRQAPGKERELVASIRYSSASTYYADSVKGRFTISRDNAKNTVYLQMNSLKPVDTAVYYCAASWYPVFVGYDYWGQGTQVTVSS”, the “polyreactivity (PSR sort gate)” value was “high polyreactivity”.

Consider “QVQLVDSGGGLVQAGGSLRLSCAASGSTFGGNAMGWYRQAPGKERELVAAITGSGGRTFYADSVKGRFTISRDNAKNTVYLQMNSLNPEDTAVYYCAADSYIYSVNYWGQGTQLTVSS”, for which the “polyreactivity (PSR sort gate)” value is “low polyreactivity”.

For “QVQLEESRGGLVQAGGSLRLSCAASGNIFGSNAMGWYRQAPGKERGLVAAISGSNGGTYYADSVKGRFTISRDYAKNTVYLQMNSLTPEDTAVYFCAAVWYLEDHHDYYYWGQGTQVTVSS”, the “polyreactivity (PSR sort gate)” value is listed as “low polyreactivity”.

For “QVQLVESGGGLVQAVGSLRLSCASSGNTFGPNAMGWYRQAPGKERELVAAIRWRGGSTYYADSVKGRFTISRDYAKNTVYLQMNSLKPVDNAVYYCAAGIHSPTYRTGTTYVDYDYWGQGTQVTVSS”, the “polyreactivity (PSR sort gate)” value is on record as “high polyreactivity”.

For the sequence “QVQLVESGGGLVQAGGSLRLSCAASGIIFVENAMGWYRQAPGKERELVASGDSTYYADSVKGRFTISRDNAKNTVYLQMNSLKPEDTAVYYCAVDHYSARLLARYDYWGQGTQVTVSS”, the “polyreactivity (PSR sort gate)” value is given as “low polyreactivity”.

For “QVQLVESVGGLVQAGGSLRLSCAASGSIFGVYAMGWYRQAPGKERELVATISRSGAITYYADSVKGRFTISRDNAKNTVYLQMNSLKPEDTAVYYCAADFFSREWGQGTQVTVSS”, the “polyreactivity (PSR sort gate)” value was “low polyreactivity”.

“QVQLVESGGGLVQAGGSLRLSCAASGSTFDLNAMGWYRQAPGKERELVARITSSTGRTFYADSVKGRFTISRDNAKNTVYLQMNSLKPEDTAVYYCAKDHASYSYWPSVLPYDHWGQGTQVTVSS”: the “polyreactivity (PSR sort gate)” value is “low polyreactivity”.

For the sequence “QVQLVESGGGLVQAGGSHRLSCAASGSTFPAYAMGLYRQAPGKERELVAAINTTGGNTYYADSVKGRFTISRDNAKNTVYFQMNSLKPEDTAVYYCAADYKARYSEKFDYWGQGTQVTVSS”, the “polyreactivity (PSR sort gate)” value is reported as “low polyreactivity”.

For the sequence “QVQLVESGGGLVQAGGSLRLSCAASGSTFVLYAMGWYRQAPGKERELVATISSGGSTYYADSVKGRFTISRDNAKNTVYLQMNSLKPEDTAVYYCAASYSRFVDWIGDPGYDYWGQGTQVTVSS”, the “polyreactivity (PSR sort gate)” value is reported as “low polyreactivity”.

“QVQLEESGGGLVQAGGSLRLSCAASGIIFTTYDMGWYRQATGKERELVAAISSSTTNTYYADSVKGRFTISRDNAKNTVYLQMNSLKPEDTAVYYCAAPYKRNAGFDYWGQGTQVTVSS”: the “polyreactivity (PSR sort gate)” value is “low polyreactivity”.

Consider “QVQLVESGGGVVQAGGSLRLSCASSGSIFGPYVMGWYRQAPGKERELVAAISKSGGSTYYADSVKGRFTISRDNAKNTVFLLMNSLKPEDTAVYYCATDYLGGGKRYYYWGQGTQVTVSS”, for which the “polyreactivity (PSR sort gate)” value is recorded as “high polyreactivity”.

As for “QVQLVESGGGLVQAGGSLRLSCAASGIFFQQYAMGWYRLAPGKERELVAAISRGGTRTYYADSVKGRFTISRDNAKNTGYLQMNSLKPEDTAVYYCAADRGYVSYDYWGQGTQVTVSS”, the “polyreactivity (PSR sort gate)” value is listed as “high polyreactivity”.

On to “QVQVVESGGGLVQAGGSLRLSCAASGSTFYINAIGWYRQAPGNERELVAAIYFRGGSTYYADSVKGRFPISRDNAKNTVYVKMNSLKPEVTAVYYCAAYYYFFRRYSWRLSCDYWGQGTQVTVSS”, for which the “polyreactivity (PSR sort gate)” value is “low polyreactivity”.
